The assay concerns the target fluorescein isothiocyanate (FITC)-casein. The assay can be described thus: fluorescence polarisation; fluorescence anisotropy; FITC-casein 100 nM, ClpB (WT or mutant) varied; Reaction buffer, 10 min at 30°C, 2 mM ATP; black 384 well plates; Kd by nonlinear regression.

Usually Kd stands for the free concentration of one partner at which half of the binding sites on the other are occupied at equilibrium, for simple one-to-one binding. A lower Kd goes with higher affinity.

Chain of fluorescein isothiocyanate (FITC)-casein (P02662 16-214): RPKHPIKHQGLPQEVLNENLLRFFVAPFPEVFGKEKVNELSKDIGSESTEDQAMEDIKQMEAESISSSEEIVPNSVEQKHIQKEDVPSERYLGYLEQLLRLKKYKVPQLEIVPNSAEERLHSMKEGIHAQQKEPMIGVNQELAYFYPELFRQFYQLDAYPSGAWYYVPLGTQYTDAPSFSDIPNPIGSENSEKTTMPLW
Chain of ClpB wild-type (P63284 whole entry): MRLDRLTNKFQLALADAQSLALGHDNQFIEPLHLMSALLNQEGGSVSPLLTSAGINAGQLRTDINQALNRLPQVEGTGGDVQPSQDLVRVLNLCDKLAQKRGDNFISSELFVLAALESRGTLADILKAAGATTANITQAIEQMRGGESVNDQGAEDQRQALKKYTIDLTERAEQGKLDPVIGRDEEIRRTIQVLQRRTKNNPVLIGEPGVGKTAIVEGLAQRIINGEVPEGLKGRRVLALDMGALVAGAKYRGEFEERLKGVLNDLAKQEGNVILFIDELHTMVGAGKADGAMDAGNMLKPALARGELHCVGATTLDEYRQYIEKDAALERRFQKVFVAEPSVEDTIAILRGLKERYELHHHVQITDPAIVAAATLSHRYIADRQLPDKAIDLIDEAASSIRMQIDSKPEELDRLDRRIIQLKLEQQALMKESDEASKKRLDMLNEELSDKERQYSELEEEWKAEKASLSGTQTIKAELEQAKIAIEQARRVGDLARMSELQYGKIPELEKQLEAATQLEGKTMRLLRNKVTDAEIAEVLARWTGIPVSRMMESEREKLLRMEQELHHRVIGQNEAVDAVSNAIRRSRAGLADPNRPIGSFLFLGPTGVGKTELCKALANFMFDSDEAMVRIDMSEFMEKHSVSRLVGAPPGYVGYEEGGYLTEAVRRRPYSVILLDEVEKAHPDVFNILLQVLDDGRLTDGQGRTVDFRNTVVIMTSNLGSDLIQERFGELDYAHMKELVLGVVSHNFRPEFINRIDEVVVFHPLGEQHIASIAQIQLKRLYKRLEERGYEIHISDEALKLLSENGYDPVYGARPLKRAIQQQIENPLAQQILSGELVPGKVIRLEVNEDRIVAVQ

As for “ClpB wild-type (from UniProt P63284 1-857) (natural protein)”, the Kd was 330 nM.

With “ClpB-K476C (from UniProt P63284 1-857) (natural protein)”, the Kd worked out at 220 nM.

These data come from paper PMC6593972.
